# Assay results: patent US20260209365A1, “ANTI-COMMON GAMMA CHAIN PROTEINS AND COMPOSITIONS OF MATTER” (SINOMAB BIOSCIENCE LIMITED, priority 2023, published 2026)
# B1: hSM-05A: full-length humanized anti-γc antibody derived from SM-05A by framework patching (antibody, V domains shown)
# VH: QVQLVQSGAEVLKPGASVKVSCKASGYTFTEYTMHWVKQARGQRLEWIGGIDPYNGGATYNQRFKGKATLTTDTSTSTAYMELRNLRSDDTAVYYCARRRLYYGNALDYWGQGTLVTVSS
# VL: DIVMTQSPLSLPVTPGEQASISCRSSQSLVHSNGNTYLHWYLQKPGQSPQLLIYKVSSRFSGVPDRFSGSGSGTDFTLKISRVEAEDVGVYFCSQTTHVPFTFGSGTKLEIKR
# Experiments:
# Assay type in all cases: cell-based, human
# Jurkat T cells = assay: IL-9 rescue of ceramide induced Jurkat cell death, WST-8; conditions: ceramide 50 μM; IL-9 50 ng/ml; three days
# Description: Jurkat T cells were pretreated with anti-γc antibodies or ritlecitinib before the application of anti-tumor ceramide (50 μM) and IL-9 (50 ng/ml) for three days. To evaluate cell survival, 10 μl WST-8 reagent was added to each well and incubated for 4 hours before spectrophotometer measurement.
# BCL-2 expression = assay: IL-7 induced BCL-2 expression in HPB-ALL, flow cytometry; conditions: humanized antibodies, 33 nM, vs ritlecitinib
# Description: Several assays, such as were proposed to study cell survival of HPB-ALL from literature [Ribeiro et al., Blood Adv., 2018; 2 (17): 2199-2213] was measured in terms of BCL2 (anti-apoptotic marker) expressing cells by flow cytometry. In brief, HPB-ALL was pre-treated with antibodies or inhibitors for an hour before stimulated with 50 ng/ml IL-7 for 3 days. Cells were harvested and stained with FITC-conjugated BCL-2 antibody (Biolegend) for flow cytometry analysis.
# [1] = test system: CD127 internalization and degradation; assay: IL-7 induced CD127 internalization and degradation in HPB-ALL, flow cytometry; conditions: humanized antibodies, 33 nM, vs ritlecitinib
# Description: Specific methods for IL-7 function were developed in HPB-ALL [Henriques et al., Blood., 2010; 115 (16): 3269-77]. IL-7 could trigger the internalization of its own receptor, CD127 (or IL-7Rai), into the cell compartment for degradation. As the CD127 degradation depends on the JAK3 activated status after IL-7 stimulation, blockade of γc binding to CD127 and downstream signaling pathway should stop CD127 internalization and degradation in HPB-ALL.
# After antibody or inhibitor pretreatment, HPB-ALL was challenged with 50 ng/ml IL-7 for 3 hours. Surface CD127 expression was performed in live cells while total CD127 expression was investigated in PFA fixed and permeabilized cells. Cells were stained with APC-conjugated CD127 antibody for flow cytometry analysis.
molecule,measurement,setting,value
B1,suppression of IL-9 rescue of ceramide induced Jurkat cell death,Jurkat T cells,could suppress the IL-9 effect
same,suppression of IL-7 induced BCL-2 upregulation,BCL-2 expression,better suppression to IL-7 induced BCL-2 upregulation and CD127 degradation than ritlecitinib
same,suppression of IL-7 induced CD127 degradation,[1],better suppression to IL-7 induced BCL-2 upregulation and CD127 degradation than ritlecitinib
